Experimental data reported in article PMC3963969.

Target: Rad4/Cut5 (UniProt P32372)
Assay: anti-HA IP of Rad9, anti-Rad4 blot
Details: reference: wild-type Rad9; sites T412

Substance: Rad9 (from UniProt P26306) Rad9-T412A
- binding against the reference: lost
